In patent US20190185532A1 (UNIVERSITY OF BIRMINGHAM, published 2019):

Key:
[1] = molecular target: T1, CLEC14A^C103S (GFP tag, expressed in HEK293T) (human, UniProt Q86T13 22-490); test: flow cytometry on transfected HEK293T cells
T1 construct: not shown: C-terminal GFP tag from vector pEGFP-N1
T1 sequence: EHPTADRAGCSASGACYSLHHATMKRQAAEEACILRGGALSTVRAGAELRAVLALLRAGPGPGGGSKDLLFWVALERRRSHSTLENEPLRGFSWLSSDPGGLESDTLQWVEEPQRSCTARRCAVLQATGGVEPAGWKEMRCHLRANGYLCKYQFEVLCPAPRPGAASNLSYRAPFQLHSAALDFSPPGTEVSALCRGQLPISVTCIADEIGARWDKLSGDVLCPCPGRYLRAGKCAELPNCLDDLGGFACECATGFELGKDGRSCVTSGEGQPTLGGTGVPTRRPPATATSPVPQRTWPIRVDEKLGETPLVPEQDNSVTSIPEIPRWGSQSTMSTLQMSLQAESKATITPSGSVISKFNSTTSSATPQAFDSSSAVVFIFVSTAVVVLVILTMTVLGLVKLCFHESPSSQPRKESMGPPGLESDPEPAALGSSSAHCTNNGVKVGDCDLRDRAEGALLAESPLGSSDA

[2] = molecular target: T2, CLEC14A (human, wild type, C-terminal GFP tag, expressed in HEK293T) (human, UniProt Q86T13 22-490); test: flow cytometry on transfected HEK293T cells, streptavidin-PE
T2 construct: On cells in flow cytometry; as non-reduced HEK293T lysate in far western blots; also called CLEC14A wt; cell surface expressed CLEC14A; not shown: C-terminal green fluorescent protein (GFP) tag from vector pEGFP-N1
T2 sequence: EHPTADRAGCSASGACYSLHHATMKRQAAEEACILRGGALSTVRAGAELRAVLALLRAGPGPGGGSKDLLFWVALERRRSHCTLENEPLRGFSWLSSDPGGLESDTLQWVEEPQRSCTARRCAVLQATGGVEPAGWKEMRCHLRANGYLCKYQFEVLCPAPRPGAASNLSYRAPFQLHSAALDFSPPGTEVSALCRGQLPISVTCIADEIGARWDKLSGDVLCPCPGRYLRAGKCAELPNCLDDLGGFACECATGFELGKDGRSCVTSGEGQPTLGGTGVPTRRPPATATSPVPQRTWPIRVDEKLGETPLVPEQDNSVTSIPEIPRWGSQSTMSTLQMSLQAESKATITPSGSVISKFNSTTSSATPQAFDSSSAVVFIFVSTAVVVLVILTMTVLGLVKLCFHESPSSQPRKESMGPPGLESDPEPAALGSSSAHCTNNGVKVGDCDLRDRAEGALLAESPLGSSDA
Source text: (§1) The minimal CLEC14A binding fragment is highlighted in black. (B,C) HEK293T were transfected with truncation mutants. Lysates were far western blotted under reduced conditions with CLEC14A extracellular domain fused to an Fc tag (CLEC14A-ECD-Fc) and western blotted by use of His tag antibodies. (B) The smallest binding fragment was identified as MMRN2⁴⁸⁷⁻⁸²⁰, MMRN2^FL fails to bind CLEC14A-ECD-Fc. (C) The smallest MMRN2 fragment binding CLEC14A is MMRN2⁵³⁰⁻⁶²⁴. (D) MMRN2⁴⁹⁵⁻⁶⁷⁴ and MMRN2⁴⁹⁵⁻⁶⁰³ bind to streptavidin under reducing conditions after biotinylation. (E) Flow cytometry histograms of HEK293T transfected with GFP tagged CTLD group 14 family members and stained with biotinylated MMRN2⁴⁹⁵⁻⁶⁷⁴ (grey line), confirming binding to CLEC14A and CD93 but not thrombomodulin. Streptavidin-PE was used as a control for background binding (grey shaded).
(§2) The human MMRN2⁴⁹⁵⁻⁶⁷⁴ fragment along with the non-CLEC14A binding fragment MMRN2⁴⁹⁵⁻⁶⁰³ was expressed in E. coil with a His tag for purification and a BirA tag for specific biotinylation (17). Biotinylated proteins could bind to streptavidin in western blots (FIG. 2D) and MMRN2⁴⁹⁵⁻⁶⁷⁴ could bind to cell surface expressed CLEC14A and CD93 but not thrombomodulin detected by flow cytometry. This confirmed the CLEC14A and CD93 interactions likely occur in the same region of MMRN2 (FIG. 2E).
(§3) HUVEC or transfected HEK293T cells were detached from tissue culture plates using cell dissociation buffer or scraped and 5×10⁵ cells were stained with 20 ug/mL of antibody of interest or 20 μg/mL of recombinant protein. In blocking experiments, hCLEC14A-ECD-Fc was incubated with 2× molar excess of antibody or recombinant protein on ice for 1 hour. Flow cytometry buffer (PBS with 0.2% (w/v) BSA and 0.02% (w/v) sodium azide) was used for all wash and incubation steps. Samples were analysed on a FACSCalibur machine (BD Biosciences). […] Isotype control staining or human Fc alone was used as background fluorescence and this was subtracted from the geometric mean fluorescence intensity of each sample.

[3] = molecular target: T3, CD93 (human, wild type, C-terminal GFP tag, expressed in HEK293T) (human, UniProt Q9NPY3 22-652); test: as above
T3 construct: On cells in flow cytometry; as non-reduced HEK293T lysate in far western blots; also called CD93 wild type (wt); cell surface expressed CD93; not shown: C-terminal green fluorescent protein (GFP) tag from vector pEGFP-N1
T3 sequence: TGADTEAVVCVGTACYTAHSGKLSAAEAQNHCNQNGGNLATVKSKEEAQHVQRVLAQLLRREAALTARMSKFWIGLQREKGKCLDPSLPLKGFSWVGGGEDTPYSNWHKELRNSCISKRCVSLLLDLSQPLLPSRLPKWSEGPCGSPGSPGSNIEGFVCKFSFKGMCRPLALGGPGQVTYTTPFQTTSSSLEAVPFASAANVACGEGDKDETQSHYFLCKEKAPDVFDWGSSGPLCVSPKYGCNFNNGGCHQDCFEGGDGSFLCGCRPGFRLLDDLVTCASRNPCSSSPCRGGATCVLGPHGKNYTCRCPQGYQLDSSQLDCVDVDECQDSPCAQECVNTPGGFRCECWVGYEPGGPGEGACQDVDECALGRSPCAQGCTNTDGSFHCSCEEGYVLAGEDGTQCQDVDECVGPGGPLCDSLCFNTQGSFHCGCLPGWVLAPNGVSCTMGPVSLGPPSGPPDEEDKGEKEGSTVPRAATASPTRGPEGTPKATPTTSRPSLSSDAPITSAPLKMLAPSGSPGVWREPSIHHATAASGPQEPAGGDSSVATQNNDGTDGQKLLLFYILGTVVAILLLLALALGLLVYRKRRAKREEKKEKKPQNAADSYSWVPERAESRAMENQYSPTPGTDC
Source text: as §1, §2, §3

B1: biotinylated MMRN2^495-674 (human, expressed in E. coli with a His tag and a BirA tag) (ligand)
chain: QKLYLDLDVIREGQRDATRALEETQVSLDERRQLDGSSLQALQNAVDAVSLAVDAHKAEGERARAATSRLRSQVQALDDEVGALKAAAAEARHEVRQLHSAFAALLEDALRHEAVLAALFGEEVLEEMSEQTPGPLPLSYEQIRVALQDAASGLQEQALGWDELAARVTALEQASEPPRP
modifications: biotin on the BirA tag
notes: Used for staining of transfected HEK293T cells in flow cytometry, detected with streptavidin-PE; not shown: BirA tag and His tag (vector pET23a)
binding result [1]: no binding (tested: 20 µg/mL) | binding result [2]: binds | binding result [3]: binds
